The results in this text go back to the supplement of paper PMC7125110.

± gives the standard error. Variants at the floor of the assay were thinned out.

The labels stand for the following.
B1: glmS ribozyme (parent)
chain: AUAAAAGCGCCAGAACUACAGAAAUGUAGUUGACGAGGAGGAGGUUUAUCGAAUUUUCGGCGGAUGCCUCCAAA

What all share (settings): with glucosamine-6-phosphate
Data set [1] covers variants of B1. The data set is described as follows: self-cleavage kobs at 40 uM GlcN6P; higher = faster cleavage; RNA array. A digest of the protocol: (§1)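 A hybridised Cy3 probe tracked barcoded ribozyme variants, transcribed in situ by E. coli RNA polymerase on sequenced MiSeq chips, at 37 °C. The variants received 40 μM to 10 mM glucosamine-6-phosphate in HEPES/KCl/Mg(OAc)2 buffer. kobs came from decay fits and kcat and KM from weighted Michaelis–Menten fits.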

The variants in data set [2] derive from B1. The data set is described as follows: self-cleavage kobs at 160 uM GlcN6P; higher = faster cleavage; RNA array. In short, it runs like this: as §1
Variants of B1 are the subject of data set [3]. The data set is described as follows: self-cleavage kobs at 640 uM GlcN6P; higher = faster cleavage; RNA array. A digest of the protocol:
as §1

The variants in data set [4] derive from B1. The data set is described as follows: self-cleavage kobs at 2500 uM GlcN6P; higher = faster cleavage; RNA array. A digest of the protocol:
as §1

Variants of B1 are the subject of data set [5]. Nature of the data set: self-cleavage kobs at 10000 uM GlcN6P; higher = faster cleavage; RNA array. In short, it runs like this:
as §1

Consider A48U A53C, for which the “self-cleavage kobs at 40 uM GlcN6P” value in the data set with glucosamine-6-phosphate [1] was < 1e-05 s⁻¹. Besides, in the data set with glucosamine-6-phosphate [2], the “self-cleavage kobs at 160 uM GlcN6P” value is < 1e-05 s⁻¹.

Take G41U C68A: in the data set with glucosamine-6-phosphate [1], the “self-cleavage kobs at 40 uM GlcN6P” value is < 1e-05 s⁻¹. In addition, in the data set with glucosamine-6-phosphate [2], the “self-cleavage kobs at 160 uM GlcN6P” value is < 1e-05 s⁻¹. Besides, in the data set with glucosamine-6-phosphate [3], the “self-cleavage kobs at 640 uM GlcN6P” value is < 1e-05 s⁻¹. Moreover, the “self-cleavage kobs at 2500 uM GlcN6P” value with glucosamine-6-phosphate [4] was < 1e-05 s⁻¹. Further, the “self-cleavage kobs at 10000 uM GlcN6P” value with glucosamine-6-phosphate [5] is < 1e-05 s⁻¹.

With C10G C34A A48C U49C, in the data set with glucosamine-6-phosphate [1], the “self-cleavage kobs at 40 uM GlcN6P” value is < 1e-05 s⁻¹.

As for A12U A36G U54A, the “self-cleavage kobs at 40 uM GlcN6P” value with glucosamine-6-phosphate [1] was < 1e-05 s⁻¹.

As to G32C A36C G37C, the “self-cleavage kobs at 40 uM GlcN6P” value with glucosamine-6-phosphate [1] is < 1e-05 s⁻¹.

As for G9U C16G, the “self-cleavage kobs at 40 uM GlcN6P” value with glucosamine-6-phosphate [1] was < 1e-05 s⁻¹. Also, in the data set with glucosamine-6-phosphate [4], the “self-cleavage kobs at 2500 uM GlcN6P” value was < 1e-05 s⁻¹.

With A42G G44A A48G U57C C67A, in the data set with glucosamine-6-phosphate [1], the “self-cleavage kobs at 40 uM GlcN6P” value is < 1e-05 s⁻¹.

With C11U A48G A53G, the “self-cleavage kobs at 40 uM GlcN6P” value in the data set with glucosamine-6-phosphate [1] was < 1e-05 s⁻¹. Moreover, the “self-cleavage kobs at 10000 uM GlcN6P” value with glucosamine-6-phosphate [5] is < 1e-05 s⁻¹.

For C11U G41C U45A C71G, in the data set with glucosamine-6-phosphate [1], the “self-cleavage kobs at 40 uM GlcN6P” value is < 1e-05 s⁻¹. Besides, the “self-cleavage kobs at 160 uM GlcN6P” value in the data set with glucosamine-6-phosphate [2] is < 1e-05 s⁻¹. Also, the “self-cleavage kobs at 2500 uM GlcN6P” value with glucosamine-6-phosphate [4] was < 1e-05 s⁻¹.

As for G37A G63C, the “self-cleavage kobs at 40 uM GlcN6P” value in the data set with glucosamine-6-phosphate [1] was < 1e-05 s⁻¹. Moreover, the “self-cleavage kobs at 160 uM GlcN6P” value with glucosamine-6-phosphate [2] is < 1e-05 s⁻¹. Also, the “self-cleavage kobs at 640 uM GlcN6P” value in the data set with glucosamine-6-phosphate [3] was < 1e-05 s⁻¹. Besides, the “self-cleavage kobs at 2500 uM GlcN6P” value with glucosamine-6-phosphate [4] was < 1e-05 s⁻¹. Besides, in the data set with glucosamine-6-phosphate [5], the “self-cleavage kobs at 10000 uM GlcN6P” value was < 1e-05 s⁻¹.

As for C34A G37U G44U, the “self-cleavage kobs at 40 uM GlcN6P” value with glucosamine-6-phosphate [1] is < 1e-05 s⁻¹.

Regarding G7C G38U C70G, in the data set with glucosamine-6-phosphate [1], the “self-cleavage kobs at 40 uM GlcN6P” value is < 1e-05 s⁻¹.

On to A42G U55G, for which the “self-cleavage kobs at 40 uM GlcN6P” value with glucosamine-6-phosphate [1] turned out to be 0.00175 ± 0.00035 s⁻¹. For the same variant, the “self-cleavage kobs at 10000 uM GlcN6P” value with glucosamine-6-phosphate [5] worked out at 0.0243 ± 0.0042 s⁻¹.

G44A C71G: in the data set with glucosamine-6-phosphate [1], the “self-cleavage kobs at 40 uM GlcN6P” value was < 1e-05 s⁻¹. For the same variant, in the data set with glucosamine-6-phosphate [2], the “self-cleavage kobs at 160 uM GlcN6P” value is < 1e-05 s⁻¹. Also, in the data set with glucosamine-6-phosphate [3], the “self-cleavage kobs at 640 uM GlcN6P” value was < 1e-05 s⁻¹. Also, the “self-cleavage kobs at 10000 uM GlcN6P” value with glucosamine-6-phosphate [5] is < 1e-05 s⁻¹.

Regarding C8A A15G G60A, the “self-cleavage kobs at 40 uM GlcN6P” value with glucosamine-6-phosphate [1] was < 1e-05 s⁻¹. Also, in the data set with glucosamine-6-phosphate [3], the “self-cleavage kobs at 640 uM GlcN6P” value is < 1e-05 s⁻¹. Moreover, the “self-cleavage kobs at 2500 uM GlcN6P” value in the data set with glucosamine-6-phosphate [4] was < 1e-05 s⁻¹.

Regarding G9A A42G G43U C61A, the “self-cleavage kobs at 40 uM GlcN6P” value with glucosamine-6-phosphate [1] is < 1e-05 s⁻¹. Moreover, the “self-cleavage kobs at 640 uM GlcN6P” value in the data set with glucosamine-6-phosphate [3] was < 1e-05 s⁻¹.

G9A U57G C67U: the “self-cleavage kobs at 40 uM GlcN6P” value in the data set with glucosamine-6-phosphate [1] was < 1e-05 s⁻¹. Also, the “self-cleavage kobs at 10000 uM GlcN6P” value in the data set with glucosamine-6-phosphate [5] is < 1e-05 s⁻¹.

For the variant G9U G29C U30C, the “self-cleavage kobs at 40 uM GlcN6P” value with glucosamine-6-phosphate [1] is < 1e-05 s⁻¹. Besides, the “self-cleavage kobs at 160 uM GlcN6P” value with glucosamine-6-phosphate [2] was < 1e-05 s⁻¹. For the same variant, in the data set with glucosamine-6-phosphate [3], the “self-cleavage kobs at 640 uM GlcN6P” value is < 1e-05 s⁻¹. Further, the “self-cleavage kobs at 2500 uM GlcN6P” value in the data set with glucosamine-6-phosphate [4] is < 1e-05 s⁻¹. Besides, the “self-cleavage kobs at 10000 uM GlcN6P” value in the data set with glucosamine-6-phosphate [5] was < 1e-05 s⁻¹.

With C50A U57G C68U, in the data set with glucosamine-6-phosphate [1], the “self-cleavage kobs at 40 uM GlcN6P” value was < 1e-05 s⁻¹. In addition, the “self-cleavage kobs at 10000 uM GlcN6P” value in the data set with glucosamine-6-phosphate [5] is < 1e-05 s⁻¹.

In the case of C10G A33G A52U C58U A64U, the “self-cleavage kobs at 40 uM GlcN6P” value in the data set with glucosamine-6-phosphate [1] is < 1e-05 s⁻¹.

For the variant C10G G38C U69G, in the data set with glucosamine-6-phosphate [1], the “self-cleavage kobs at 40 uM GlcN6P” value is < 1e-05 s⁻¹. In the data set with glucosamine-6-phosphate [3], the “self-cleavage kobs at 640 uM GlcN6P” value is < 1e-05 s⁻¹.

On to G7C G35A, for which, in the data set with glucosamine-6-phosphate [1], the “self-cleavage kobs at 40 uM GlcN6P” value is < 1e-05 s⁻¹. Moreover, the “self-cleavage kobs at 640 uM GlcN6P” value with glucosamine-6-phosphate [3] is < 1e-05 s⁻¹. For the same variant, the “self-cleavage kobs at 2500 uM GlcN6P” value with glucosamine-6-phosphate [4] was < 1e-05 s⁻¹. Besides, the “self-cleavage kobs at 10000 uM GlcN6P” value with glucosamine-6-phosphate [5] is < 1e-05 s⁻¹.

Consider G37C A64U, for which the “self-cleavage kobs at 40 uM GlcN6P” value in the data set with glucosamine-6-phosphate [1] was < 1e-05 s⁻¹. In the data set with glucosamine-6-phosphate [2], the “self-cleavage kobs at 160 uM GlcN6P” value is < 1e-05 s⁻¹. In the data set with glucosamine-6-phosphate [3], the “self-cleavage kobs at 640 uM GlcN6P” value was < 1e-05 s⁻¹. In the data set with glucosamine-6-phosphate [4], the “self-cleavage kobs at 2500 uM GlcN6P” value is < 1e-05 s⁻¹. The “self-cleavage kobs at 10000 uM GlcN6P” value with glucosamine-6-phosphate [5] is < 1e-05 s⁻¹.

On to A14G A15G A33G G40U, for which, in the data set with glucosamine-6-phosphate [1], the “self-cleavage kobs at 40 uM GlcN6P” value was < 1e-05 s⁻¹. The “self-cleavage kobs at 640 uM GlcN6P” value in the data set with glucosamine-6-phosphate [3] was < 1e-05 s⁻¹. Moreover, the “self-cleavage kobs at 10000 uM GlcN6P” value with glucosamine-6-phosphate [5] is < 1e-05 s⁻¹.

In the case of U30G G62U, the “self-cleavage kobs at 40 uM GlcN6P” value with glucosamine-6-phosphate [1] was < 1e-05 s⁻¹. For the same variant, the “self-cleavage kobs at 640 uM GlcN6P” value with glucosamine-6-phosphate [3] was < 1e-05 s⁻¹. For the same variant, in the data set with glucosamine-6-phosphate [5], the “self-cleavage kobs at 10000 uM GlcN6P” value is < 1e-05 s⁻¹.

As to G38A G60U U69G, the “self-cleavage kobs at 40 uM GlcN6P” value with glucosamine-6-phosphate [1] was < 1e-05 s⁻¹. Moreover, in the data set with glucosamine-6-phosphate [5], the “self-cleavage kobs at 10000 uM GlcN6P” value is < 1e-05 s⁻¹.
